Reference: patent publication US8980604B2 (priority 2009, dated 2015)
Where a chain is given by its changes, count along the chain named. In names and notes the source's numbering stands.

Tests used:
[1] = molecular target: T1, E. coli glycerol dehydrogenase (GlyDH, GldA), native (wild type) (Escherichia coli, UniProt P0A9S5); assay: Inhibition by product 1,2-propanediol, native GlyDH; format: biochemical; set-up: made in house; host or cells: E. coli BL21 star (DE3) ΔgldA::Cm with pETTOPO-gldA; settings: read-out: loss of maximum activity
T1 sequence (P0A9S5 1-367): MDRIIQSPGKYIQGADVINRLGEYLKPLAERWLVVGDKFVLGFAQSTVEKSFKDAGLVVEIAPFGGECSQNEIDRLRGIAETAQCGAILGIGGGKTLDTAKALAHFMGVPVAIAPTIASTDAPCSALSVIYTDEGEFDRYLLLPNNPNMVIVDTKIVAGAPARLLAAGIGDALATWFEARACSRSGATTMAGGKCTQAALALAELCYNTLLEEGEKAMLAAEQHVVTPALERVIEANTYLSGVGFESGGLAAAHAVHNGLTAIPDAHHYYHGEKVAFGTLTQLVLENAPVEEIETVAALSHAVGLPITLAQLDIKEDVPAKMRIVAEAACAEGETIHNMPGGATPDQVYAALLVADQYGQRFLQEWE
Procedure: (§1) The 3 strains E. coli MG1655 pME101-VB01-gldA, E. coli MG1655 pME101-VB01-gldA*(A160T) and E. coli MG1655 pME101-VB01-gldA*(T120N) were cultivated in minimal medium with 10 g/l glucose as carbon source in 500 ml baffled Erlenmeyer flasks with 50 ml culture medium. The culture was carried out on a rotary shaker at 200 rpm. The temperature of the culture was maintained at 37° C. and the pH of the medium was buffered with MOPS (initial pH 6.8). Expression of the gene on the pME101-VB01 plasmid was induced by adding 100 μM IPTG at the beginning of the culture. The cultures were stopped at mid-exponential phase. The biomass was harvested by centrifugation, the supernatant was discarded and the pellet was stored at −20° C. before use.
(§2) Between 55-65 mg of E. coli biomass were resuspended in 9 ml of 100 mM Potassium phosphate pH 7, 0.1 mM DTT, 0.1 mM pyridoxal 5′-phosphate (PLP) and a protease inhibitor cocktail. Cells were sonicated on ice (Branson sonifier, 70 W) during four cycles of 30 sec with 30 sec intervals. After sonication, cells debris were removed by centrifugation at 12000 g for 30 min at 4° C. The crude extracts were desalted using an Econo-Pac 10 DG column (BioRad).

[2] = molecular target: T1, E. coli glycerol dehydrogenase (GlyDH, GldA), native (wild type); assay: Kinetics toward NADH and inhibition by NAD+, crude extract, native GlyDH
[3] = molecular target: GlyDH (glycerol dehydrogenase) of Nishise et al, 1984 (Cellulomonas); settings: read-out: Ki (hydroxyacetone), literature; cited from earlier work
[4] = molecular target: T2, E. coli glycerol dehydrogenase (GlyDH, GldA) mutant GlyDH*(A160T) (Escherichia coli, UniProt P0A9S5, A160T); assay: Inhibition by substrate hydroxyacetone (Dixon plot), GlyDH*(A160T); format: biochemical; set-up: made in house; host or cells: E. coli BL21 star (DE3) ΔgldA::Cm with pETTOPO-gldA*(A160T); settings: crude extract
T2 sequence (P0A9S5 1-367 A160T): T1 sequence (P0A9S5 1-367) with A160T
Procedure: as §1, §2

[5] = molecular target: T3, E. coli glycerol dehydrogenase (GlyDH, GldA) mutant GlyDH*(T120N) (Escherichia coli, UniProt P0A9S5, T120N); assay: Inhibition by substrate hydroxyacetone (Dixon plot), GlyDH*(T120N); format: biochemical; set-up: made in house; host or cells: E. coli BL21 star (DE3) ΔgldA::Cm with pETTOPO-gldA*(T120N); settings: crude extract
T3 sequence (P0A9S5 1-367 T120N): T1 sequence (P0A9S5 1-367) with T120N
Procedure: as §1, §2

[6] = system: Glycerol dehydrogenase (GlyDH); format: biochemical, E. coli; settings: for Specific activity, Glycolaldehyde: substrate glycolaldehyde; for Specific activity, Glycolaldehyde / Specific activity, Hydroxyacetone / Specific activity, Methyl glyoxal: purified enzyme, pH 6.5, 30° C.; for Specific activity, Hydroxyacetone: substrate hydroxyacetone; for Specific activity, Methyl glyoxal: substrate methyl glyoxal
Procedure: The oxidation reaction was carried out in quartz cuvette cells filled with 1 ml of the mixture: 100 mM MES buffer pH 6.5 with 30 mM of ammonium sulphate, 0.1 mM of iron sulphate, 0.1 mM of NADH and around 0.5 μg of purified proteins. […] In all reactions, non enzymatic rates were subtracted from the observed initial reaction rates. Enzyme activities are reported as μmoles of substrate/min/mg of […] and represents averages for at least three purified enzyme preparations.
The purification process designed to purify the glycerol dehydrogenase overexpressed in E. coli is composed of two steps. […] Cell pellets were resuspended in 3 ml of 50 mM HEPES buffer pH 7.5 containing protease inhibitor cocktail (Roche) and homogenized by sonication (at 0° C., under aerobic conditions, in four cycles of 30 s with 2 minutes intervals between each cycle). Cells debris were eliminated by centrifugation (5 min 12000 g) and nucleic acids in cell homogenate were precipitated by a streptomycin sulphate treatment (13.3 mg/ml final concentration, 15 minutes, 0° C.). The streptomycin sulphate treated cell homogenate was harvested by centrifugation (5 min 12000 g), and contaminant proteins of the supernatant were eliminated by ammonium sulphate precipitation at a saturated concentration of 20%, at 4° C., with stirring over one hour. The precipitate was then removed by centrifugation (20 min, 8600 g, 4° C.) and discarded. A further portion of ammonium sulphate at a saturated concentration of 30% was added to the supernatant as previously and then centrifuged 30 minutes at 8600 g 4° C. collecting the precipitate. The precipitate was dissolved in 3 ml of 50 mM Hepes Buffer pH 7.5 with 1M ammonium sulphate before loading 2.5 ml sample onto a hydrophobic interaction chromatography column (Hitrap phenyl sepharose, GEhealthcare) connected to an AKTA purifier system and equilibrated with 50 mM Hepes Buffer pH 7.5 containing 1M ammonium sulphate. After washing with 20 ml of the same buffer, proteins were eluted with a 20 ml linear gradient of 50 mM Hepes Buffer pH 7.5 from 1 M to 0 M of ammonium sulphate. […] The protein concentration and purity were respectively determined with the Bradford reagent and with sodium dodecylsulfate polyacrylamide gel electrophoresis (FIG. 3).
The kinetic parameters were determined with Sigma Plot (Systat Software Inc, San Jose Calif.) by fitting to the Michaelis Menten equation using a non linear regression.

[7] = system: Glycerol dehydrogenase (GlyDH); format: biochemical, E. coli; settings: crude extract; hydroxyacetone as substrate
Procedure: (§3) Glycerol dehydrogenase activity was assayed by measuring the initial rate of NADH oxidation with a spectrophotometer at a wavelength of 340 nm and at a constant temperature of 30° C. […] Control assay (blank), lacking the substrate was run in parallel and the value measured for the control was subtracted to the value measured for the assay to take into account non-specific oxidation of NADH.
(§4) One unit of enzyme activity was defined as the amount of enzyme that consumed 1 μmol substrate per minute under the conditions of the assay. Specific enzyme activity was expressed as units per mg of protein.
(§5) Enzyme kinetics with regards to NADH were realised with increasing concentration of NADH between 0.025 and 0.4 mM.

[8] = substrate: CC(=O)CO; assay: purified protein, by the assay type; settings: other: purified enzyme, pH 6.5, 30° C., 0.1 mM NADH, hydroxyacetone 0.1 to 15 mM
[9] = molecular target: T4, Glycerol dehydrogenase (GlyDH) (Escherichia coli, UniProt P0A9S5, A160T); format: biochemical, E. coli; settings: NAD+ 0.6-1.2-2.5-4 mM
T4 construct: made in house; host or cells: E. coli MG1655, plasmid pME101-VB01-gldA; crude extract, not purified
T4 sequence (P0A9S5 whole entry A160T): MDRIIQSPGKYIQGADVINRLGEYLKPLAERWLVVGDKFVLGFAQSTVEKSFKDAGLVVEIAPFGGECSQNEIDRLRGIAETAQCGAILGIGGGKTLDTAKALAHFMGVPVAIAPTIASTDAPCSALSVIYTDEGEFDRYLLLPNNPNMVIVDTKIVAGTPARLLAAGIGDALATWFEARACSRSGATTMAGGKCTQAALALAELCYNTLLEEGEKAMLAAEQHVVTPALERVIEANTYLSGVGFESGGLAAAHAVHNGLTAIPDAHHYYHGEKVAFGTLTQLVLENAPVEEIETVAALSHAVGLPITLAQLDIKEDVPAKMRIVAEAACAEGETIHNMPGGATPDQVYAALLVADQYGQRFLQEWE
Procedure: as §3, §4, §5

## CC(O)CO (centres unmarked) [1,2-propanediol]
[1]
  inhibition at 40000 µM: 50%
  inhibition at 100000 µM: 65%

## NC(=O)c1ccc[n+]([C@@H]2O[C@H](COP(=O)([O-])OP(=O)(O)OC[C@H]3O[C@@H](n4cnc5c(N)ncnc54)[C@H](O)[C@@H]3O)[C@@H](O)[C@H]2O)c1 [NAD+]
[2]
  Ki: 0.43 mM

## CC(=O)CO [Hydroxyacetone, hydroxyacetone]
[3]
  Ki: 11.6 mM
[4]
  Ki Hydroxyacetone increase by a factor (vs native): more than 10
[5]
  Ki Hydroxyacetone increase by a factor (vs native): more than 10

B1: E. coli glycerol dehydrogenase (GlyDH, GldA), native (wild type) (Escherichia coli K-12) (protein)
chain: T1 sequence (P0A9S5 1-367)
[6]
  Specific activity, Glycolaldehyde: 148.89 +/− 19.36 U/mg
  Specific activity, Hydroxyacetone: 36.3 +/− 0.88 U/mg
  Specific activity, Methyl glyoxal: 57.77 +/− 3.81 U/mg
[7]
  Specific activity: 1240 ± 77 nmol/min/mg
[8]
  Km: 70 ± 20 µM

B2: E. coli glycerol dehydrogenase (GlyDH, GldA) mutant GlyDH*(A160T) (Escherichia coli K-12; A160T) (protein)
chain: T1 sequence (P0A9S5 1-367) with A160T
[6]
  Specific activity, Glycolaldehyde: 167.33 +/− 6.03 U/mg
  Specific activity, Hydroxyacetone: 40.5 +/− 0.85 U/mg
  Specific activity, Methyl glyoxal: 58.27 +/− 2.42 U/mg
[6]; three substrates, pH 6.5
  Kinetics compared with native enzyme: no significant differences
[9]
  Inhibition by NAD+ at the concentrations used: almost no inhibition
[7]
  Specific activity: 1140 ± 42 nmol/min/mg
